This passage reports screen value results from PMC7442819, “Taf14 recognizes a common motif in transcriptional machineries and facilitates their clustering by phase separation” (Nature Communications, 2020).

B1: Sth1EBM (Sth1_(1183–1240)) [Saccharomyces cerevisiae] / Taf14ET (Taf14_(174–244)) [Saccharomyces cerevisiae] (parent)
chain 1: EVKSSSVEIINGSESKKKKPKLTVKIKLNKTTVLENNDGKRAEEKPESKSPAKKTAAK
chain 2: KGSVDLEKLAFGLTKLNEDDLVGVVQMVTDNKTPEMNVTNNVEEGEFIIDLYSLPEGLLKSLWDYVKKNTE
B2: Snf5_(771–800) [Saccharomyces cerevisiae] / Taf14ET (Taf14_(174–244)) [Saccharomyces cerevisiae] (parent)
chain 1: SPPCYIIDHIPGHSLLLSIKLPGKVNTKEE
chain 2: B1 chain 2
B3: Ino80_(368–390) [Saccharomyces cerevisiae] / Taf14ET (Taf14_(174–244)) [Saccharomyces cerevisiae] (parent)
chain 1: DSKLNIKITLKQYHVKRLKKLIN
chain 2: B1 chain 2

In one assay the parent is B1. In words: ITC. To be noted: with Taf14ET (Taf14_(174–244)) [Saccharomyces cerevisiae].
As to chain 1 EVKSSSVEIINGSESKKKKPKLTAKIKLNKTTVLENNDGKRAEEKPESKSPAKKTAAK, the screen value came to 28 kJ/mol. On to chain 1 EVKSSSVEIINGSESKKKKPKLTVKIKANKTTVLENNDGKRAEEKPESKSPAKKTAAK, for which the screen value was 22 kJ/mol. On the same count and under the same terms, the result for chain 1 EVKSSSVEIINGSESKKKKPKATVKIKLNKTTVLENNDGKRAEEKPESKSPAKKTAAK reads 30.3 kJ/mol.

The assay is the same for the next values; noted with them: with Sth1EBM (Sth1_(1183–1240)) [Saccharomyces cerevisiae].
In the case of chain 2 KGSVDLEKLAFGLTKLNEDDLVGVVQMVTDNKTPEMNVTNNVEEGEFIRDLYSLPEGLLKSLWDYVKKNTE, the screen value worked out at 5.06 kJ/mol.

Take chain 2 KGSVDLEKLAFGLTKLNEDDLVGVVQMVTDNKTPEMNVTNNVEEGEAIIDLYSLPEGLLKSLWDYVKKNTE: the screen value amounted to 34.1 kJ/mol. As to chain 2 KGSVDLEKLAFGLTKLNEDDLVGVVQMVTDNKTPEMNVTNNVEEGERIIDLYSLPEGLLKSLWDYVKKNTE, the screen value is 25.1 kJ/mol.

Variants of B2 are the subject of another assay. Put plainly: ITC. Particulars: with Taf14ET (Taf14_(174–244)) [Saccharomyces cerevisiae].
Turning to chain 1 SPPCYIIDHIPGHSLLLSAKLPGKVNTKEE, the screen value was 2.18 kJ/mol. Regarding chain 1 SPPCYIIDHIPGHSLLASIKLPGKVNTKEE, the screen value was 2.3 kJ/mol.

Another assay covers variants of B3. In words: ITC. Particulars: with Taf14ET (Taf14_(174–244)) [Saccharomyces cerevisiae].
Consider chain 1 DSKLNIKITAKQYHVKRLKKLIN, for which the screen value was 14.3 kJ/mol. For chain 1 DSKLNAKITLKQYHVKRLKKLIN, the screen value was determined as 18.5 kJ/mol.
